Test results published in the supplement of paper PMC12042874.
± gives the uncertainty stated by the source.

Assay: amyloid nucleation score (Sup35N fusion, yeast selection) (log enrichment); library NNK2; higher = more nucleation; inactive = no reads after selection
Procedure, shortened: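 Sup35N was fused to peptides of 20 random codons and expressed in psi-negative yeast, which were induced with 100 μM copper sulfate for 24 hours and then grown on medium lacking adenine and uracil for 7 days at 30°C. Plasmid inserts from input and output were sequenced on Illumina. The nucleation score is the DiMSum log enrichment of output over input reads, centred on the mode score of non-aggregating sequences. Sequences with under 100 input reads were left out, and random libraries had three technical output replicates.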

**Q.** With IATHHTDESAG as the substance, how does the amyloid nucleation score read?
**A.** Its amyloid nucleation score is -0.083 ± 0.79.

**Q.** For ICCGVEHWYVIGFNVGSFYF, which amyloid nucleation score is on record?
**A.** The amyloid nucleation score was 7.964 ± 0.039.

**Q.** For ICFGGTLSWSCVVAILNLSN, which amyloid nucleation score is on record?
**A.** Its amyloid nucleation score is 5.616 ± 0.027.

**Q.** For ICISGAFNVTAHLKLAQASL, which amyloid nucleation score is on record?
**A.** The amyloid nucleation score was 0.295 ± 1.

**Q.** For ICLVLCRGSDA, which amyloid nucleation score is on record?
**A.** Its amyloid nucleation score is 0.554 ± 0.74.

**Q.** With ICSSYALGQSTETG as the substance, how does the amyloid nucleation score read?
**A.** Its amyloid nucleation score is -0.559 ± 0.76.

**Q.** Which amyloid nucleation score does the source give for ICTALGGWWSKEVMSADMFL here?
**A.** The amyloid nucleation score was 0.811 ± 0.67.

**Q.** With ICVRERNRSYRMPFMMFVVR as the substance, how does the amyloid nucleation score read?
**A.** Its amyloid nucleation score is -0.017 ± 1.

**Q.** With IDDCVKGKTPGNSGNMFCLP as the substance, how does the amyloid nucleation score read?
**A.** Its amyloid nucleation score is -1.06 ± 0.42.

**Q.** Which amyloid nucleation score does the source give for IDDDHLEHEVNGSRRCKMRW here?
**A.** The amyloid nucleation score was -0.055 ± 1.1.

**Q.** For IDFLM, which amyloid nucleation score is on record?
**A.** The amyloid nucleation score was -0.744 ± 0.39.

**Q.** For IDGYIQGFHGIRLEQLGGVE, which amyloid nucleation score is on record?
**A.** Its amyloid nucleation score is 0.152 ± 0.48.

**Q.** Which amyloid nucleation score does the source give for IDHYLVLASLDW here?
**A.** Its amyloid nucleation score is -0.41 ± 0.47.

**Q.** Which amyloid nucleation score does the source give for IDILWVRVNAFLSVVEIRSN here?
**A.** Its amyloid nucleation score is 0.949 ± 0.15.

**Q.** Which amyloid nucleation score does the source give for IDLMKLCFLLYSIGFFLPTH here?
**A.** The amyloid nucleation score was “inactive”.

**Q.** With IDRGTFVLGFYRYKYNYFFK as the substance, how does the amyloid nucleation score read?
**A.** The amyloid nucleation score was “inactive”.

**Q.** For IDSSGEYIVLRGYMYMRFRL, which amyloid nucleation score is on record?
**A.** Its amyloid nucleation score is -0.72 ± 0.4.

**Q.** With IDSYLNTSKASRVPCDLRAL as the substance, how does the amyloid nucleation score read?
**A.** Its amyloid nucleation score is 0.67 ± 0.81.

**Q.** Which amyloid nucleation score does the source give for IEGQGLIVCNGDCTGRPNLR here?
**A.** Its amyloid nucleation score is 1.69 ± 0.39.

**Q.** Which amyloid nucleation score does the source give for IEGREGCARDNKGYYTALLL here?
**A.** Its amyloid nucleation score is “inactive”.

**Q.** Which amyloid nucleation score does the source give for IEVFDIWCPAGFVMEALRFV here?
**A.** The amyloid nucleation score was 4.28 ± 0.099.

**Q.** Which amyloid nucleation score does the source give for IEYRNMLMLSCFNKYMDCLN here?
**A.** The amyloid nucleation score was 4.45 ± 0.055.

**Q.** With IFCADMVLNFGGMCPARERA as the substance, how does the amyloid nucleation score read?
**A.** The amyloid nucleation score was 0.038 ± 0.8.

**Q.** For IFCWL, which amyloid nucleation score is on record?
**A.** The amyloid nucleation score was 3.51 ± 0.047.

**Q.** With IFDQVNSRYRYAVGYGKW as the substance, how does the amyloid nucleation score read?
**A.** The amyloid nucleation score was “inactive”.

**Q.** With IFNVKRGILVTSVFDNVQVW as the substance, how does the amyloid nucleation score read?
**A.** Its amyloid nucleation score is “inactive”.

**Q.** For IFNVRRVLHFIIYVSDIPLD, which amyloid nucleation score is on record?
**A.** The amyloid nucleation score was -1.89 ± 0.78.

**Q.** With IFNWECMDAFFSLK as the substance, how does the amyloid nucleation score read?
**A.** The amyloid nucleation score was “inactive”.

**Q.** For IFPEL, which amyloid nucleation score is on record?
**A.** The amyloid nucleation score was -1.11 ± 0.45.

**Q.** For IFSEGSTSSGSFGTKL, which amyloid nucleation score is on record?
**A.** The amyloid nucleation score was -1.6 ± 0.61.

**Q.** With IFVGVNCIQKISKRYGWYLC as the substance, how does the amyloid nucleation score read?
**A.** The amyloid nucleation score was 0.214 ± 0.77.

**Q.** For IFVNILNWLSVVRSSGFGSV, which amyloid nucleation score is on record?
**A.** The amyloid nucleation score was “inactive”.

**Q.** Which amyloid nucleation score does the source give for IFWVVEFWIYYTSFLSWETR here?
**A.** The amyloid nucleation score was 0.455 ± 0.51.

**Q.** Which amyloid nucleation score does the source give for IFYKPVFSLFVIGSRMNGGI here?
**A.** Its amyloid nucleation score is 7.29 ± 0.054.

**Q.** For IGESLRYIRRVILSMIFHLA, which amyloid nucleation score is on record?
**A.** The amyloid nucleation score was 1.18 ± 0.66.

**Q.** With IGIAKYLREGRSSPTESL as the substance, how does the amyloid nucleation score read?
**A.** The amyloid nucleation score was -0.5 ± 0.33.

**Q.** Which amyloid nucleation score does the source give for IGISYCSRRVIFHGTRKTHS here?
**A.** Its amyloid nucleation score is -0.034 ± 0.28.

**Q.** Which amyloid nucleation score does the source give for IGLHVWHLSLKGSSDLSGTV here?
**A.** The amyloid nucleation score was 1.85 ± 0.12.

**Q.** Which amyloid nucleation score does the source give for IGLYGNANPMTGVHSHLLCG here?
**A.** Its amyloid nucleation score is -0.088 ± 0.54.

**Q.** With IGMCLILRNPYIVLSDRWSS as the substance, how does the amyloid nucleation score read?
**A.** The amyloid nucleation score was 0.308 ± 0.39.

**Q.** For IGMSHRSQACESFKVKCPTY, which amyloid nucleation score is on record?
**A.** Its amyloid nucleation score is 1.66 ± 0.2.

**Q.** Which amyloid nucleation score does the source give for IGTGLDADTSM here?
**A.** Its amyloid nucleation score is 1.44 ± 0.16.

**Q.** With IGTNSGAINSVSHGLLAGYG as the substance, how does the amyloid nucleation score read?
**A.** The amyloid nucleation score was 1.24 ± 0.47.

**Q.** With IGVLISVGNLSYSTYSSRFI as the substance, how does the amyloid nucleation score read?
**A.** The amyloid nucleation score was 5.87 ± 0.062.

**Q.** Which amyloid nucleation score does the source give for IHCRCVADCSRS here?
**A.** The amyloid nucleation score was -0.097 ± 0.76.

**Q.** With IHDELSRCRC as the substance, how does the amyloid nucleation score read?
**A.** The amyloid nucleation score was -0.611 ± 0.63.

**Q.** For IHRGFILADTLHHYCSGLLI, which amyloid nucleation score is on record?
**A.** The amyloid nucleation score was -0.199 ± 0.65.

**Q.** With IHSSVGYMKTVPKLDDS as the substance, how does the amyloid nucleation score read?
**A.** The amyloid nucleation score was 0.207 ± 0.34.

**Q.** With IHWNKIMRFTFKYGILLYPS as the substance, how does the amyloid nucleation score read?
**A.** Its amyloid nucleation score is -0.525 ± 1.1.

**Q.** For IIDNYNYMF, which amyloid nucleation score is on record?
**A.** Its amyloid nucleation score is -0.963 ± 1.1.

**Q.** Which amyloid nucleation score does the source give for IIEPYVHGVWKFHRFYLKSA here?
**A.** The amyloid nucleation score was -0.701 ± 0.55.

**Q.** Which amyloid nucleation score does the source give for IIHSLARFIC here?
**A.** Its amyloid nucleation score is -0.594 ± 0.26.

**Q.** Which amyloid nucleation score does the source give for IIHTWLWTHRSIR here?
**A.** Its amyloid nucleation score is -0.406 ± 0.5.

**Q.** Which amyloid nucleation score does the source give for IIIIATEHK here?
**A.** Its amyloid nucleation score is 3.48 ± 0.16.

**Q.** Which amyloid nucleation score does the source give for IIKLRFFWYYNLLNQYLGFR here?
**A.** Its amyloid nucleation score is “inactive”.

**Q.** For IIMLYEYHLITGTMNAMHRV, which amyloid nucleation score is on record?
**A.** The amyloid nucleation score was “inactive”.

**Q.** With IINSANM as the substance, how does the amyloid nucleation score read?
**A.** The amyloid nucleation score was 0.736 ± 0.74.

**Q.** For IIPCRSLFAFNMMVM, which amyloid nucleation score is on record?
**A.** The amyloid nucleation score was 0.288 ± 0.53.

**Q.** Which amyloid nucleation score does the source give for IIRTTSNRPTPLRCSPNLSM here?
**A.** The amyloid nucleation score was -0.779 ± 0.33.

**Q.** With IISYEVWSPQQGDLNSHHCL as the substance, how does the amyloid nucleation score read?
**A.** The amyloid nucleation score was “inactive”.

**Q.** Which amyloid nucleation score does the source give for IITMLGQEWAFGKLFDPLTL here?
**A.** Its amyloid nucleation score is 0.524 ± 0.34.

**Q.** With IIVFV as the substance, how does the amyloid nucleation score read?
**A.** Its amyloid nucleation score is 0.086 ± 0.74.

**Q.** With IIYYWAPLVITMEFQERRVR as the substance, how does the amyloid nucleation score read?
**A.** The amyloid nucleation score was 6.395 ± 0.038.

**Q.** For IKCKKKYRSYWNRG, which amyloid nucleation score is on record?
**A.** The amyloid nucleation score was -0.27 ± 0.46.

**Q.** With IKDMTKVIATGFCLCITLVC as the substance, how does the amyloid nucleation score read?
**A.** The amyloid nucleation score was 0.592 ± 0.66.

**Q.** Which amyloid nucleation score does the source give for IKERGLCRWMYARFKGKSAI here?
**A.** Its amyloid nucleation score is “inactive”.

**Q.** With IKHDLSTFNNFSPVSWNMVY as the substance, how does the amyloid nucleation score read?
**A.** Its amyloid nucleation score is -0.307 ± 0.79.

**Q.** For IKNSRNVLLMPLLANHWHNS, which amyloid nucleation score is on record?
**A.** The amyloid nucleation score was -0.58 ± 0.63.

**Q.** Which amyloid nucleation score does the source give for IKVNCIEYYHSLRSRFDTSA here?
**A.** The amyloid nucleation score was 0.065 ± 1.1.

**Q.** For IKVYSTVYQVSCLLRLMLLM, which amyloid nucleation score is on record?
**A.** Its amyloid nucleation score is -1.24 ± 0.64.

**Q.** Which amyloid nucleation score does the source give for ILANCGCCSNFSFYQMGEKY here?
**A.** Its amyloid nucleation score is 8.279 ± 0.047.

**Q.** For ILFLVNLFSLSIANVFR, which amyloid nucleation score is on record?
**A.** The amyloid nucleation score was “inactive”.

**Q.** Which amyloid nucleation score does the source give for ILGVRYVSCSGSLGNWAQRG here?
**A.** The amyloid nucleation score was 4.87 ± 0.098.

**Q.** For ILIIRLKFLVIVAITSTGSD, which amyloid nucleation score is on record?
**A.** Its amyloid nucleation score is “inactive”.

**Q.** For ILIKIKRWSFRFPFGFGKLD, which amyloid nucleation score is on record?
**A.** Its amyloid nucleation score is “inactive”.

**Q.** With ILILVLIECLILWFCYTMCI as the substance, how does the amyloid nucleation score read?
**A.** Its amyloid nucleation score is 3.16 ± 0.049.

**Q.** Which amyloid nucleation score does the source give for ILLINCMFNQYSGC here?
**A.** Its amyloid nucleation score is 7.894 ± 0.075.

**Q.** For ILLISVCYRNIVYISSSLMG, which amyloid nucleation score is on record?
**A.** The amyloid nucleation score was -0.172 ± 0.21.

**Q.** For ILLRMTITCMFTPYHAERRG, which amyloid nucleation score is on record?
**A.** Its amyloid nucleation score is 4.61 ± 0.07.

**Q.** For ILLVYTLHRCLSSRVNEYQM, which amyloid nucleation score is on record?
**A.** Its amyloid nucleation score is 4.22 ± 0.052.

**Q.** For ILNCVMYLICKYVFII, which amyloid nucleation score is on record?
**A.** The amyloid nucleation score was 2.16 ± 0.14.

**Q.** With ILRECFIFSHRKTHLLKFWL as the substance, how does the amyloid nucleation score read?
**A.** The amyloid nucleation score was -0.622 ± 1.1.

**Q.** With ILRFEAIYFEIMPHVYKVVK as the substance, how does the amyloid nucleation score read?
**A.** Its amyloid nucleation score is -0.409 ± 0.38.

**Q.** With ILRVSGDAERSILFCPCLAI as the substance, how does the amyloid nucleation score read?
**A.** The amyloid nucleation score was -0.255 ± 0.25.
